This note sets out measurements from patent US20250361321A1 (Memorial Sloan Kettering, published 2025).

Experiment [1] has as its target T1, human MUC16 as expressed on MUC16+ cancer cell lines (OVCAR3, SKOV8, OVCA432) (human).
T1 construct: This is endogenous MUC16 on ovarian cancer cell lines; also called hMUC16; Mucin-16
The experiment is described as follows: FACS on MUC16+ OVCAR3 cells, BsAb followed by a secondary antibody, against secondary antibody alone. As for the experimental part: In this example, the specificity of the anti-MUC16 BsAbs for binding to cancer cells that express MUC16 was assessed. In one study, two target cell lines were employed, a MUC16⁺ OVCAR3 cell line and a MUC16 SKOV3 cell line. OVCAR3 and SKOV3 cell lines were obtained through the American Type Culture Collection (ATCC®, Manassas, VA) and sustained in culture according to the ATCC® literature. FACS analysis of anti-MUC16 antibody binding to the two target cell lines was performed to confirm that antibody binding was observed only with the MUC16+ OVCAR3 cell line. SKOV3 or OVCAR3 cell lines were incubated with the anti-MUC16 Ab followed by a secondary antibody or with a secondary antibody alone as a control.

The target of experiment [2] is T2, wildtype MUC16-C114-GFP fusion protein expressed on HEK293 cells (HEK293-MUC16WT) (human).
T2 construct: not shown: GFP fusion partner
T2 chain: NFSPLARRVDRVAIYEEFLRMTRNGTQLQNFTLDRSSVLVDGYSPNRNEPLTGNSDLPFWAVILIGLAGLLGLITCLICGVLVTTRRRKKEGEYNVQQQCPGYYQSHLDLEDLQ
The experiment is described as follows: FACS, scFv phage on HEK293-MUC16WT cells (FIG. 5). The method, then:
(§1) 540 phage clones identified from the cell panning were then tested by FACS analysis for binding to HEK293-MUC16WT cells. Briefly, 0.2 million cells (in PBS+5% FBS+0.05% NaN₃) were incubated for 2 h at 4° C. with 50 μl of ˜[…] pfu/mL phage in PBS. FACS was carried out using primary antibody mouse anti-M13 mAb (Thermo #MAI-12900) and secondary antibody PE anti-mouse IgG (Vectors Lab #EI-2007).
(§2) The 40 MUC16 specific clones were tested for their binding to HEK293-MUC16WT. HEK293-MUC16mut, and parental HEK293 cells. […] These clones were thus specific for the N-glycosylation site (N30).

In experiment [3] the target is T3, N30 mutant MUC16-C114-GFP fusion protein expressed on HEK293 cells (HEK293-MUC16mut) (human).
T3 construct: The GFP signal of this line was weaker than that of the WT line (26x against 170x MFI increase); also called MUC16c114 N30A; not shown: GFP fusion partner
T3 chain: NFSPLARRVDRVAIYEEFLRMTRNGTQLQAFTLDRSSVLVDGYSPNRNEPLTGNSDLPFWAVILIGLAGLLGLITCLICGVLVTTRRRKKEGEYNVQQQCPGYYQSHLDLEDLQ
The experiment is described as follows: FACS, scFv phage on HEK293-MUC16mut cells. As for the experimental part:
as §1, §2
For orientation: In flow cytometry, cells or beads pass a laser one at a time.

B1: anti-MUC16 clone 8 BsAb (Clone 8/anti-CD3 bispecific antibody) (bispecific antibody)
chain: DIQLTQSPSAVSASVGDRVTITCRASQDVSKWLAWYQQKPGKAPRLLISAASGLQSWVPSRFSGSGSGTEFTLSISSLQPEDFATYYCQQANSFPWTFGQGTKVEIKRSRGGGGSGGGGSGGGGSLEMAQVQLQQWGAGLLKPSETLSLTCAVYGGSFSGYYWSWIRQPPGKGLEWIGEINHSGSTNYNPSLKSRVTISVDTSKNQFSLKLSSVTAADTAVYYCARQSYITDSWGQGTLVTVSSTSGGGGSDVQLVQSGAEVKKPGASVKVSCKASGYTFTRYTMHWVRQAPGQGLEWIGYINPSRGYTNYADSVKGRFTITTDKSTSTAYMELSSLRSEDTATYYCARYYDDHYCLDYWGQGTTVTVSSGEGTSTGSGGSGGSGGADDIVLTQSPATLSLSPGERATLSCRASQSVSYMNWYQQKPGKAPKRWIYDTSKVASGVPARFSGSGSGTDYSLTINSLEAEDAATYYCQQWSSNPLTFGGGTKVEIKHHHHHH
notes: It was secreted from CHO cells; also called clone 8 bispecific antibody; anti-MUC16 clone & BsAb
In the case of B1, the “MFI increase in binding over the control cells” value in experiment [1] is ~300 × (fold MFI).

B2: anti-MUC16 clone 12 scFv antibody phage clone (scFv)
scFv: NFMLTQPHSVSESPGKTVTISCTRSRGSIASAYVQWYQQRPGSAPITVIYEDYERPSEIPDRFSGSIDSSSNSASLTISGLKTEDEADYYCQSYDDNDHVIFGGGTKVTVLGSRGGGGSGGGGSGGGGSLEMAQVQLQQWGAGLLKPSETLSLTCAVYGGSFSGYYWSWIRQPPGKGLEWIGEINHSGSTNYNPSLKSRIIMSVDTSKRQFSLKLRSATAADTAVYYCARWSPFSYKQMYDYWGQGTLVTVSS
notes: The phage coat fusion is not described
For the molecule B2, the results for the binding result in experiment [2] and in experiment [3] were “binds” and “no binding”, respectively.

B3: anti-MUC16 clone 8 scFv antibody phage clone (scFv)
scFv: DIQLTQSPSAVSASVGDRVTITCRASQDVSKWLAWYQQKPGKAPRLLISAASGLQSWVPSRFSGSGSGTEFTLSISSLQPEDFATYYCQQANSFPWTFGQGTKVEIKRSRGGGGSGGGGSGGGGSLEMAQVQLQQWGAGLLKPSETLSLTCAVYGGSFSGYYWSWIRQPPGKGLEWIGEINHSGSTNYNPSLKSRVTISVDTSKNQFSLKLSSVTAADTAVYYCARQSYITDSWGQGTLVTVSS
notes: as for B2
For B3, the values for the binding result in experiment [2] and in experiment [3] were “binds” and “no binding”, respectively.
